Data taken from article PMC5484391 (Cell, 2017).

Target: the molecule itself
Test: cryo-EM structure

B1: hERGTs (human hERG, truncated construct lacking residues 141–380 and 871–1005) (natural protein, UniProt Q12809 1-1159, looked up)
chain: MPVRRGHVAPQNTFLDTIIRKFEGQSRKFIIANARVENCAVIYCNDGFCELCGYSRAEVMQRPCTCDFLHGPRTQRRAAAQIAQALLGAEERKVEIAFYRKDGSCFLCLVDVVPVKNEDGAVIMFILNFEVVMEKDMVGSGADVLPEYKLQAPRIHRWTILHYSPFKAVWDWLILLLVIYTAVFTPYSAAFLLKETEEGPPATECGYACQPLAVVDLIVDIMFIVDILINFRTTYVNANEEVVSHPGRIAVHYFKGWFLIDMVAAIPFDLLIFGSGSEELIGLLKTARLLRLVRVARKLDRYSEYGAAVLFLLMCTFALIAHWLACIWYAIGNMEQPHMDSRIGWLHNLGDQIGKPYNSSGLGGPSIKDKYVTALYFTFSSLTSVGFGNVSPNTNSEKIFSICVMLIGSLMYASIFGNVSAIIQRLYSGTARYHTQMLRVREFIRFHQIPNPLRQRLEEYFQHAWSYTNGIDMNAVLKGFPECLQADICLHLNRSLLQHCKPFRGATKGCLRALAMKFKTTHAPPGDTLVHAGDLLTALYFISRGSIEILRGDVVVAILGKNDIFGEPLNLYARPGKSNGDVRALTYCDLHKIHRDDLLEVLDMYPEFSDHFWSSLEITFNLRDTNMIPGGRQYQELPRCPAPTPSLLNIPLSSPGRRPRGDVESRLDALQRQLNRLETRLSADMATVLQLLQRQMTLVPPAYSAVTTPGPGPTSTSPLLPVSPLPTLTLDSLSQVSQFMACEELPPGAPELPQEGPTRRLSLPGQLGALTSQPLHRHGSDPGS
B1: binds.
